Our source for the protein stability index values is the supplement of paper PMC10567573.

A short description of the data set: protein stability index of a GFP-peptide fusion (GPS, HEK-293T) (PSI 1-6); higher = more stable. The following applies: c terminus: a fixed tail appended.

± gives the standard deviation.
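Also: 24-mer peptide tiles fused after GFP, lentivirally expressed, FACS-sorted into six equal bins by GFP/DsRed ratio, decoded by Illumina sequencing, PSI is the read-weighted mean bin number.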

Regarding PGSLGPWKITIYDQENFQGKRMEF [CRYBA1], the protein stability index reads like this: (treatment: DMSO) 2.25 ± 0.33; (treatment: MLN4924 1 uM, 8 h) 2.18 ± 0.39.

For the sequence PGVAYPAFLGPDEAFALPDSLLVV [SPSB4], the protein stability index turned out to be 2.76 ± 0.49 (treatment: DMSO) and 2.21 ± 0.13 (treatment: MLN4924 1 uM, 8 h).

As for PHFQPDASLLQPVTPLGTSRWRKI [NCF4], the protein stability index by setting is: (treatment: DMSO) 3.58 ± 0.3; (treatment: MLN4924 1 uM, 8 h) 3.73 ± 0.17.

For PINYQGLRFSGVNDTDFRVYLLGN [POMT2], the protein stability index runs as follows: (treatment: DMSO) 2.27 ± 0.23; (treatment: MLN4924 1 uM, 8 h) 2.46 ± 0.14.

For the sequence PKQLRLINQPLPDLKNVKSKIGST [MAP2], the protein stability index turned out to be 3.9 ± 0.1 (treatment: DMSO) and 3.88 ± 0.19 (treatment: MLN4924 1 uM, 8 h).

On to PKRCLKAREHFGTVKTHLTSLKTK [TSN], for which the protein stability index runs as follows: (treatment: DMSO) 3.72 ± 0.32; (treatment: MLN4924 1 uM, 8 h) 3.88 ± 0.34.

Take PKTSGTRATSLGRPEEEEDELAHR [CPOX]: the protein stability index (treatment: DMSO) is 5.42 ± 0.36 and the protein stability index (treatment: MLN4924 1 uM, 8 h) was found to be 5.42 ± 0.19.

Turning to PLTLQVQRPLVSVTVSDASWVSEL [AUP1], the protein stability index is, setting by setting: (treatment: DMSO) 2.67 ± 0.15; (treatment: MLN4924 1 uM, 8 h) 2.67 ± 0.25.

Consider PMALLTIGSSSEKEIDDVIDEIIS [TFE3], for which the protein stability index is 2.98 ± 0.099 (treatment: DMSO) and 3.29 ± 0.095 (treatment: MLN4924 1 uM, 8 h).

With PNIAMTSGTVQPKQDAFANFANFS [CLINT1], the protein stability index reads like this: (treatment: DMSO) 3.61 ± 0.34; (treatment: MLN4924 1 uM, 8 h) 3.66 ± 0.14.

In the case of PNNKEIPSHHPTDPVELRRLNFQT [PTPRD], the protein stability index (treatment: DMSO) was determined as 4.15 ± 0.18 and the protein stability index (treatment: MLN4924 1 uM, 8 h) amounted to 4.35 ± 0.081.

PPALLPLYFQWYIFYFVIQRKKWV [FADS1]: the protein stability index reads like this: (treatment: DMSO) 2.68 ± 0.059; (treatment: MLN4924 1 uM, 8 h) 2.73 ± 1.6.

As for PPGHHAEQDAACGFCFFNSVAVAA [HDAC6], the protein stability index amounted to 2.88 ± 0.51 (treatment: DMSO) and 2.96 ± 0.68 (treatment: MLN4924 1 uM, 8 h).

PPLPGKALKRQLPFRGDEGIFEES [SNX12]: the protein stability index (treatment: DMSO) amounted to 4.59 ± 0.21 and the protein stability index (treatment: MLN4924 1 uM, 8 h) is 4.74 ± 0.22.

As to PPLSHIMAQPLCIRALLNLHTDVG [NEK8], the protein stability index by setting is: (treatment: DMSO) 2.21 ± 0.41; (treatment: MLN4924 1 uM, 8 h) 2.03 ± 0.13.

With PPPTTAPHKERYFDRVDENNPEYL [ADD1], the protein stability index (treatment: DMSO) was determined as 5.06 ± 0.17 and the protein stability index (treatment: MLN4924 1 uM, 8 h) amounted to 5.14 ± 0.17.

In the case of PPRSDTIANYELVYKDGEHGEEQR [PTPRD], the protein stability index is, setting by setting: (treatment: DMSO) 5.48 ± 0.21; (treatment: MLN4924 1 uM, 8 h) 5.57 ± 0.14.

Regarding PPSSPRTLRLEKLGHPALSQEEGK [PPFIA4], the protein stability index was 5 ± 0.15 (treatment: DMSO) and 5.19 ± 0.31 (treatment: MLN4924 1 uM, 8 h).

As for PQLAGKWQVLCMLSLCCWGWVSGQ [PCDHGC5], the protein stability index runs as follows: (treatment: DMSO) 2.88 ± 0.93; (treatment: MLN4924 1 uM, 8 h) 2.85 ± 0.43.

As to PRNPTVRWGYVAMKFAQVFGCFFY [SOAT1], the protein stability index by setting is: (treatment: DMSO) 2.33 ± 0.2; (treatment: MLN4924 1 uM, 8 h) 2.18 ± 0.2.

Take PRVEYIDRPRCCLRGKECCINRFQ [BTBD1]: the protein stability index reads like this: (treatment: DMSO) 2.42 ± 0.13; (treatment: MLN4924 1 uM, 8 h) 2.61 ± 0.28.

For PSDLDSTGNSLNEPEEPSEIPERR [DLC1], the protein stability index runs as follows: (treatment: DMSO) 5.64 ± 0.21; (treatment: MLN4924 1 uM, 8 h) 5.62 ± 0.23.

The sequence PSSLNSPSSYNCSQSILPLEHGSI [ESR2] displayed a protein stability index (treatment: DMSO) of 3.15 ± 0.31 and a protein stability index (treatment: MLN4924 1 uM, 8 h) of 3.13 ± 0.12.

In turn, PTSPVYRGSSSGPSSPARVSTTPR [MTUS2] gave a protein stability index (treatment: DMSO) of 5 ± 0.25 and a protein stability index (treatment: MLN4924 1 uM, 8 h) of 4.95 ± 0.33.

PTTSHRLSRHDKAVQRFCLIGSLS [NETO1]: the protein stability index runs as follows: (treatment: DMSO) 2.28 ± 0.23; (treatment: MLN4924 1 uM, 8 h) 2.45 ± 0.48.

Regarding PVDGARYRWQGRRWEPSGKAEPRL [TBX6], the protein stability index runs as follows: (treatment: DMSO) 3.68 ± 0.41; (treatment: MLN4924 1 uM, 8 h) 3.86 ± 0.76.

As to PVEDSHTADISSHFQEAIDFIDCV [DUSP5], the protein stability index (treatment: DMSO) is 4.54 ± 0.21 and the protein stability index (treatment: MLN4924 1 uM, 8 h) amounted to 4.44 ± 0.32.

With PVPEQSALCQGLYFHINQTLREAH [FAM104A], the protein stability index was determined as 2.46 ± 0.21 (treatment: DMSO) and 2.77 ± 0.28 (treatment: MLN4924 1 uM, 8 h).

PWGVQGGQESEVPYKREEEALEER [PKD2L1] came in with a protein stability index (treatment: DMSO) of 5.16 ± 0.37 and a protein stability index (treatment: MLN4924 1 uM, 8 h) of 5.56 ± 0.19.
